(Ca2+)i mobilisation in HEK293T cells, pEC50, receptor without RAMP3, (Ca2+)i mobilisation in HEK293T cells, pEC50, RAMP3 over-expressed (2:1) and (Ca2+)i mobilisation in HEK293T cells, maximal response, receptor without RAMP3 (percent of 10 μM ionomycin) data for 2 substances are collected here from doi:10.1101/2025.01.24.634724, “Receptor Activity-Modifying Protein 3 enhances GLP-1-mediated Insulin Secretion” (bioRxiv, 2025).

The target of assay [1] is Nluc-GLP-1R (human) (UniProt P43220).
Assay [2] deals with Nluc-GLP-1R co-expressed with FLAG-RAMP3 (UniProt P43220).
Chain of Nluc-GLP-1R co-expressed with FLAG-RAMP3 (P43220 24-463, chain 1 of 2): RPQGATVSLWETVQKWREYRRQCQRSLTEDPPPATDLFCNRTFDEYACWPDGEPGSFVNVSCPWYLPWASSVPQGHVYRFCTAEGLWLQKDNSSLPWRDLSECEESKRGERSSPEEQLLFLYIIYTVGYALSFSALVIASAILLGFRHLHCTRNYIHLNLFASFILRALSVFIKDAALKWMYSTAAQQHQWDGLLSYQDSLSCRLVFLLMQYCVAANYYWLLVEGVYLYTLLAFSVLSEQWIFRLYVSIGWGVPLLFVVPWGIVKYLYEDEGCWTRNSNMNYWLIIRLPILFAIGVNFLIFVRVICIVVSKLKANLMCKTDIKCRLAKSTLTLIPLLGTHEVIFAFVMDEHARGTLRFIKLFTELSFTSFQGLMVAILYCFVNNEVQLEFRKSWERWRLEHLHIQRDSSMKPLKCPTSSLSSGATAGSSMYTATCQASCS
Chain of Nluc-GLP-1R co-expressed with FLAG-RAMP3 (O60896 24-148, chain 2 of 2, further chain): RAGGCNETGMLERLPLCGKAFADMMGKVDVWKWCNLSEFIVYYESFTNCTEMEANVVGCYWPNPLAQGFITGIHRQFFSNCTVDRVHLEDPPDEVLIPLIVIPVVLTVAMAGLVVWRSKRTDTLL

Chain of Nluc-GLP-1R (human) (P43220 24-463): as the sequence (P43220 24-463, chain 1 of 2) above

The substance GLP-1 (7–36amide) (peptide) displayed a (Ca2+)i mobilisation in HEK293T cells, pEC50, receptor without RAMP3 in assay [1] of 7.2 pEC50. For the same substance, the (Ca2+)i mobilisation in HEK293T cells, pEC50, RAMP3 over-expressed (2:1) in assay [2] amounted to 8.1 pEC50.
In assay [1], “exendin-4 (from UniProt P26349 48-87) (peptide)” came in with a (Ca2+)i mobilisation in HEK293T cells, maximal response, receptor without RAMP3 (percent of 10 μM ionomycin) of 43.6.
